From patent publication US20160279196A1 (published 2016) come the findings set out here.

Assay [1] has as its target T1, SSX-3 peptide on HLA-A*02:01 (human).
T1 peptide: KVSEKIVYV
Description: cytokine release.

The target in assay [2] is T2, SSX-4 peptide on HLA-A*02:01 (human).
T2 peptide: KSSEKIVYV
Put plainly: cytokine release.

In assay [3] the target is T3, SSX-5 peptide on HLA-A*02:01 (human).
T3 peptide: KASEKIIYV
Description: cytokine release.

The target in assay [4] is T4, SSX-9 peptide on HLA-A*02:01 (human).
T4 peptide: KSSEKIIYV
Description: cytokine release.

Assay [5] has as its target T5, SSX-10 peptide on HLA-A*02:01 (human).
T5 peptide: KASEKILYV
Description: cytokine release.

Assay [6] concerns the target T6, SSX-1; SSX-8 peptide on HLA-A*02:01 (human).
T6 peptide: KYSEKISYV
Put plainly: cytokine release.

Assay [7] concerns the target T7, SSX-6 peptide on HLA-A*02:01 (human).
T7 peptide: KFSEKISCV
Description: cytokine release.

Assay [8] deals with T8, SSX-7 peptide on HLA-A*02:01 (human).
T8 peptide: KSLEKISYV
Description: cytokine release.

Assay [9] deals with T9, SSX-2 peptide on HLA-A*02:01 (human).
T9 peptide: KASEKIFYV
Put plainly: multimer staining.

B1: SSX-2 TCR (TCR, V domains shown)
Valpha: AQKITQTQPGMFVQEKEAVTLDCTYDTSDPSYGLFWYKQPSSGEMIFLIYQGSYDQQNATEGRYSLNFQKARKSANLVISASQLGDSAMYFCAMTSGFGNEKLTFGTGTRLTIIP
Vbeta: DAMVIQNPRYQVTQFGKPVTLSCSQTLNHNVMYWYQQKSSQAPKLLFHYYDKDFNNEADTPDNFQSRRPNTSFCFLDIRSPGLGDAAMYLCATSRGQGGQPQHFGDGTRLSIL
Turning to B1, the binding result in assay [1] is “recognises”; in assay [2], “recognises”; in assay [3], “recognises”; in assay [4], “recognises”; in assay [5], “recognises”; in assay [6] it was “no recognition”. For the same molecule, the results for the binding result in [7], in assay [8] and in [9] were “no recognition”, “no recognition” and “recognises”, respectively.
